Assay [1] concerns the target T1, HAUS augmin like complex subunit 1, transcript variant 1 (human, UniProt Q96CS2 1-278).
T1 construct: also called HAUS1
T1 sequence: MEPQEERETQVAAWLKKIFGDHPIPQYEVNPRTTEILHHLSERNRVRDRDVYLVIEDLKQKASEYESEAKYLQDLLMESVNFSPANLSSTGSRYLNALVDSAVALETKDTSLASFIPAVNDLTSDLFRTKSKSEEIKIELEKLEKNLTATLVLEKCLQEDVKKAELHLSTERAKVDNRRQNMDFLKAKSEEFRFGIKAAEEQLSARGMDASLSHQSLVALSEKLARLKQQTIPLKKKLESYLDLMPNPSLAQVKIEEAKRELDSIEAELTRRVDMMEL

For assay [2], the target named is T2, C-X-C motif chemokine receptor 4, transcript variant 2 (human, UniProt P61073 1-352).
T2 construct: also called CXCR4
T2 sequence (P61073 whole entry, change not shown): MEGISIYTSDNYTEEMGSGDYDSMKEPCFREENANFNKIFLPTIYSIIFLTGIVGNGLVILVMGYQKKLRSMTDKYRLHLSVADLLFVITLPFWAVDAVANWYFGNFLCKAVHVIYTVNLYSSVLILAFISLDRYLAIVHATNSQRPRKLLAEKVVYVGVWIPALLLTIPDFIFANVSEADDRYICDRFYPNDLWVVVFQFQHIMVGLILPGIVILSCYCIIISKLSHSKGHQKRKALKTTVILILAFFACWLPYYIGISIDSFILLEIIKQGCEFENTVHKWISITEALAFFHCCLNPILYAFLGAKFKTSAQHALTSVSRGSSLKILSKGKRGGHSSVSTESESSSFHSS

The target of assay [3] is T3, Long intergenic non-protein coding rna 242 (human, UniProt Q5T6M2 1-205).
T3 construct: also called LINC00242
T3 chain: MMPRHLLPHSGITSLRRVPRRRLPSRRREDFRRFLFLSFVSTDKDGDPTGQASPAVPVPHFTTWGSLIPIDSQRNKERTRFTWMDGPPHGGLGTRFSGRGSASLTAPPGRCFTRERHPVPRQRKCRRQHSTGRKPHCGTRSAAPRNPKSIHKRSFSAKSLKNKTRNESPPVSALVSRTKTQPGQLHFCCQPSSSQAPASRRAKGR

Assay [4] concerns the target BCL2 apoptosis regulator, transcript variant alpha (human, UniProt P10415 1-239).
In assay [5] the target is T4, Transforming growth factor beta 3 (human, UniProt P10600 24-412).
T4 construct: also called TGFB3
T4 sequence: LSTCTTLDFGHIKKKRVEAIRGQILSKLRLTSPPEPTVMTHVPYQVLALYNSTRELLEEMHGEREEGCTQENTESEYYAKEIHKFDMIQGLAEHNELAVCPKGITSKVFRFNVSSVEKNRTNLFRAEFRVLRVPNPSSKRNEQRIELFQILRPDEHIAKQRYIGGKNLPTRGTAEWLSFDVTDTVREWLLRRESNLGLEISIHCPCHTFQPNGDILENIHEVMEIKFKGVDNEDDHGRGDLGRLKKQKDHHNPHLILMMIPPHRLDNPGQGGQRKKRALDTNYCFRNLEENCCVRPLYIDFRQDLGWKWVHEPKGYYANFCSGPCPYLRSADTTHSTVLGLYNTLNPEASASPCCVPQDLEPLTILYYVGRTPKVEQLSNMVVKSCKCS

For a further assay, the target named is T5, programmed cell death 1 (human, UniProt Q15116 25-288, limits assumed).
T5 construct: also called PDCD1
T5 sequence (Q15116 25-288 limits assumed): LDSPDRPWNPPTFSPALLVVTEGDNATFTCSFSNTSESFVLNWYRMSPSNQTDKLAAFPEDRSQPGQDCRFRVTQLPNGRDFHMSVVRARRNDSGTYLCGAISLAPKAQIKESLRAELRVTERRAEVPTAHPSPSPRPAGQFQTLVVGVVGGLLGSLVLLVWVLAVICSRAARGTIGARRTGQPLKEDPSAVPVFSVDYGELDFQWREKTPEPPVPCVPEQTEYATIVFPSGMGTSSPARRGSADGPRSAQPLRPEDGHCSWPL

Assay [6] deals with T6, phosphoglucomutase 2 like 1 (human, UniProt Q6PCE3 1-622 at identity 1.00), limits assumed).
T6 construct: also called PGM2L1
T6 sequence: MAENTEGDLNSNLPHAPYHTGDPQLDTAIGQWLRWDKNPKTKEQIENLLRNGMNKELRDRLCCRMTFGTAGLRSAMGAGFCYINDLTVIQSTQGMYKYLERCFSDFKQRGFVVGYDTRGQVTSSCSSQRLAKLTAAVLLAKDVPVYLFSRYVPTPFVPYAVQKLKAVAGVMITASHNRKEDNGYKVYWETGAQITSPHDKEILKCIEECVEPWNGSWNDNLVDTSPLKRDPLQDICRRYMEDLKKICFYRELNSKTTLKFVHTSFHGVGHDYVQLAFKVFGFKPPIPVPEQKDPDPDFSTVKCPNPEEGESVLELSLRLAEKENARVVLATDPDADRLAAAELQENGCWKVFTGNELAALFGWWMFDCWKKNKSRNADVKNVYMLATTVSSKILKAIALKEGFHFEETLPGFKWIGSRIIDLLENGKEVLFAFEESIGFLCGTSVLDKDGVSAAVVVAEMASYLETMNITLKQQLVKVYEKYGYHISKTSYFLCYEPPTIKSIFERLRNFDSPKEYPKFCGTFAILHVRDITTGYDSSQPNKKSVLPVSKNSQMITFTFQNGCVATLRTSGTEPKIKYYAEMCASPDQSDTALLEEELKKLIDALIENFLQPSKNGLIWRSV

Another assay deals with T7, chymotrypsinogen B2 (human, UniProt Q6GPI1 19-263, limits assumed).
T7 construct: also called CTRB2
T7 sequence (Q6GPI1 19-263 limits assumed): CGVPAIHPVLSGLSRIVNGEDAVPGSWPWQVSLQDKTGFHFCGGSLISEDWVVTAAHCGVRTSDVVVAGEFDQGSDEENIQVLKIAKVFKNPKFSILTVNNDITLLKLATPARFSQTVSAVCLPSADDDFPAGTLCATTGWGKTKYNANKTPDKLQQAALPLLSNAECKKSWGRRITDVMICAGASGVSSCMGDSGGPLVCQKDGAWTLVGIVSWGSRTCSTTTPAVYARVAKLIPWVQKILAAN

The target of assay [7] is T8, calcium and integrin binding 1, transcript variant b (human, UniProt Q99828 2-191).
T8 construct: also called CIB1
T8 sequence: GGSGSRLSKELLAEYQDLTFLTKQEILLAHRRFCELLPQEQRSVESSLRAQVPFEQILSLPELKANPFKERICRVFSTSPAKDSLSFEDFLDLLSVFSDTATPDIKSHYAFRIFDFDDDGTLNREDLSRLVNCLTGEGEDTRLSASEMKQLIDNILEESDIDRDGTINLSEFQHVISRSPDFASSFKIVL

Assay [8] concerns the target T9, NFKB inhibitor beta, transcript variant 1 (human, UniProt Q15653 1-356).
T9 construct: also called NFKBIB
T9 sequence: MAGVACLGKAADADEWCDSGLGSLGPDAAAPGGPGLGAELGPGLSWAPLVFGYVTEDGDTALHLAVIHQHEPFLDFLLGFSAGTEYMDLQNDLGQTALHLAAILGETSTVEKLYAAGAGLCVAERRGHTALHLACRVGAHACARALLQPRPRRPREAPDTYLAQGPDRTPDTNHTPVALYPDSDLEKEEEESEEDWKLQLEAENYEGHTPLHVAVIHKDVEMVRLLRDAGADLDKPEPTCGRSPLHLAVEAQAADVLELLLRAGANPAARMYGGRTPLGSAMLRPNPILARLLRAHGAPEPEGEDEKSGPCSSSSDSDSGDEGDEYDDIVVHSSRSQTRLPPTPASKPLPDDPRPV

In assay [9] the target is T10, cyclin dependent kinase 2 associated protein 2, transcript variant 1 (human, UniProt O75956 1-126).
T10 construct: also called CDK2AP2
T10 sequence: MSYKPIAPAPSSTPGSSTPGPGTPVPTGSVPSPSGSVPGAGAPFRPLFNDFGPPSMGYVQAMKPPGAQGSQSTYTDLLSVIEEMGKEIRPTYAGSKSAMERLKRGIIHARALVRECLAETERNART

The target of assay [10] is T11, transforming growth factor beta induced (human, UniProt Q15582 24-683, limits assumed).
T11 construct: also called TGFBI
T11 sequence: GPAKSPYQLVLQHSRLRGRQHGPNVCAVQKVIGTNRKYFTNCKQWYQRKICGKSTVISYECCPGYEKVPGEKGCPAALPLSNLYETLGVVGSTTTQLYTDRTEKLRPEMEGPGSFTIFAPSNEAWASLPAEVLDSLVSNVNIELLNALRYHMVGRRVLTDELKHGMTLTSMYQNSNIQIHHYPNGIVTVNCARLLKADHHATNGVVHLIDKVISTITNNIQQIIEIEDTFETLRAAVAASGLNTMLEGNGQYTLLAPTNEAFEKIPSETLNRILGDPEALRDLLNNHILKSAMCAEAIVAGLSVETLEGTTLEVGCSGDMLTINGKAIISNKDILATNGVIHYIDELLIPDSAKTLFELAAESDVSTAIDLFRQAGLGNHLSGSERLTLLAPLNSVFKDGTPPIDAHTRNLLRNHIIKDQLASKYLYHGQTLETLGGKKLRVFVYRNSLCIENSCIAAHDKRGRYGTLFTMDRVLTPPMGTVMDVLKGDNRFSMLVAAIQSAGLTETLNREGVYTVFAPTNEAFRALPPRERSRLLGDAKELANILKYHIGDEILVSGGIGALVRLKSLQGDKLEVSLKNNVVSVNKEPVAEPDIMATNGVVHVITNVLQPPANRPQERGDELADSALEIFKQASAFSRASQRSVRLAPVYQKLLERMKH

Chain of BCL2 apoptosis regulator, transcript variant alpha (P10415 whole entry, change not shown): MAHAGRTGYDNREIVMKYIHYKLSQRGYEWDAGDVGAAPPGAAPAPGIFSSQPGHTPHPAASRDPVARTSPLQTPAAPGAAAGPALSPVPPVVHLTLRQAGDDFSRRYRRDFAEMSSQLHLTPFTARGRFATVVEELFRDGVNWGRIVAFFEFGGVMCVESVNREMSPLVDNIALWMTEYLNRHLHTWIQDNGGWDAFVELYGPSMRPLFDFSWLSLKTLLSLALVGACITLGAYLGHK

B1: TSTO1002 (antibody, V domains shown)
VH: EVQLVESGGGLVKPGGSLRLSCAASGFTFSNAWMNWVRQTPGKGLEWVGRIKTKTDGGTTDYAEPVKGRFTISRDDSKNTLYLQMNSLKTEDTAVYYCTRGAVADYWGQGTQVTVSS
VL: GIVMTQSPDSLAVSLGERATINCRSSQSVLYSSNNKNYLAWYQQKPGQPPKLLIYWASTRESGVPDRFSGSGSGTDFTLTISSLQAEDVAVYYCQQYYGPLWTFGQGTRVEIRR
With B1, the binding result in assay [1] was “binds”.

B2: TSAR1006 (antibody, V domains shown)
VH: QVQLVQSGTEVKKPGASVKVSCKASGYRFTSNGISWVRQAPGQGLQWMGWISTDSGNTNYAQSFQGRVTLTRDTSTNTAYLELRRLRSEDTAVYYCARDKSWYFDYWGQGTLVSVSS
VL: SYELTQPPSVSVSPGQTARITCSGDALPKKYVFWYQQRSGQAPVLVIYEDSKRPSGIPDRFSGSSSGTLATLTISGAQVEDEADYYCYSTDTIGNWVFGGGTRLTVL
On to B2, for which the binding result in assay [2] and in assay [3] was “binds” in each case.

B3: TSTO1010 (antibody, V domains shown)
VH: EVQLVESGGGLVKPRGSLRLSCAASGFTFSAYGMNWVRQAPGKGLEWVSSISGDSRDIYYGASMKGRFTISRDNAKSSLYLQMNSLRAEDTAVYYCARGEGGELWAFDYWGLGVLVTVSS
VL: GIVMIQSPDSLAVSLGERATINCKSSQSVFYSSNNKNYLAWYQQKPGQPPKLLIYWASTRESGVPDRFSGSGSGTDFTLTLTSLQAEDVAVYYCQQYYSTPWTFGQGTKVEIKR
As to B3, the binding result in assay [4] is “binds”.

B4: TSTO1003 (antibody, V domains shown)
VH: QVQLKQSGGGVVQPGRSLTLSCVASGLTFSDYGMHWVRQAPGKGLEWVAVIWHDGSKTNYADSVKGRIIISRDNSKSTVYLQMNRLRGEDTAVYYCATSHGGLVPGGENYWGQGTLVTVSS
VL: SDELTQPPSVSVSPGQTARITCSGDALAKEYAYWYQQKSGQAPVLVISKDTERPSGIPARFSGSSSGTTVTLTISGVQSDDEADYYCQSADSSLTYWLFGGGTKLTVLR
As to B4, the binding result in assay [5] is “binds”.

B5: TTES1003 (antibody, V domains shown)
VH: VVQLVESGGGLVQPGGSLRLSCSASGFTFSSYAMHWVRQAPGKGLEYVSAISSNGGSTYYADSVKGRFTISRDNSKNTLYLQMSSLRAEDTAVYYCVKSPVAANDAFDIWGQGTMVTVSS
VL: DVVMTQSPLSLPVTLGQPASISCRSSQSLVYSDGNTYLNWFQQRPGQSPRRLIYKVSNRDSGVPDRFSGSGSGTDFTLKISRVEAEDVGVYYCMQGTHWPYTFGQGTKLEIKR
With B5, in the assay with programmed cell death 1, the binding result is recorded as “binds”.

B6: TTES1002 (antibody, V domains shown)
VH: QVQLQESGPGLVKPSETLSLICTVSGASVNSGTHFWSWIRQPPGKGLEWIGYVYYSGNTNYNPSLKSRVAISVDTSKNQFSLKLTSVTSADTAVYYCARDFDDGYDIRYWGQGTRVSVSS
VL: QSALTQPASVSGSPGQSITISCTGSSNDIGRYKYVSWFQHHPGRAPKLIIYEVNNRPSGLSHRFSGSKSGNTASLTISGLQAEDEADYYCCSYTSSLTYVFGTGTAVTVL
As to B6, the binding result in assay [6] is given as “binds”.

B7: TSTO1004 (antibody, V domains shown)
VH: QVQLVQSGSELKKPGASVKVSCTSSGYVFTSFGVSWVRQVPGQGPEWMGWISPYTRQTKYAQSLQGRITLTADTSTNTTYMELRSLRSDDTAMYYCVREEFGVVRGPNPFDVWGQGTMVTVSS
VL: DIQMTQAPSTLSASVGDRVSITCRASQNIRDFLAWYQQKPGRAPDLLIYRASTLEKGVSARFSGSGSGTEFTLTITGLQPDDFATYYCQQYSDYSTFGGGTRVEIK
Consider B7, for which, in the assay with chymotrypsinogen B2, the binding result is reported as “binds”.

B8: TSTO1001 (antibody, V domains shown)
VH: VVQLLESGGGLVHPGGSLRISCAASEFTFSAYAMTWVRQAPGKGLEWVSAISGSGGRTYYADSLKGRFTISRDNSKHTLYLLMNSLRVEDTAVYYCASRYRSPSGAFDIWGQGTLVTVSS
VL: EIVMTQSPATLSVSQGERATLSCRASQSVGSDLAWYQQKPGQAPRLLIYDASARATDIPARFSGSGSETEFTLTISSLQSEDFAVYYCQHYSDWRALTFGGGTKVEIKR
Take B8: the binding result in assay [7] was “binds”.

B9: TSTO1005 (antibody, V domains shown)
VH: EVQLVESGGGVVQPGGSLRLSCAASGFTFEDFGMHWVRQAPGKGLEWVAFTRFDGSEKYYVDSVKGRFTVSRDNSKNTLFLHMNSLRPEDTAVYYCAKTRSYSSADTTRPNAPGYWGQGTLVTVSS
VL: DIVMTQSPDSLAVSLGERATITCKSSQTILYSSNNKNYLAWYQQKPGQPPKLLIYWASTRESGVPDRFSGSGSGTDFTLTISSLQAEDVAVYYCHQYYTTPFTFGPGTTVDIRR
Regarding B9, the binding result in assay [8] and in [9] was “binds” in each case.

B10: TSTO1008 (antibody, V domains shown)
VH: AVQLVQSGAEVKKPGESLRISCKGSGYSFSTYWIIWVRQMPGKGLEWIGRFDPSDSYNVNSPSFQGHVTISADTSINTAYLQWSSLKASDSAMYYCARRSDKAVPGTFDQWGQGTLVTVSS
VL: RSVLTQPPSVSAAPGQKVIISCSGSSSNIGNNYVSWYQQFLGTAPKLLIYDTDKRPSGIPDRFSGSKSGTSATLGITGLQTGDEAHYYCATWDSSLRAGPVVFGGGTKLTVLG
Regarding B10, the binding result in assay [10] is recorded as “binds”.

Values taken from patent publication US20220204643A1 (published 2022).
